# Results as given in US20230002480A1.
# Assays:
# Assay in all cases: cell-based or functional assay
# [1] = target: HIV-1 Env of pseudovirus 191955_A11 (HIV-1)
# [2] = target: HIV-1 Env of pseudovirus HIV-0013095-2.11 (HIV-1)
# [3] = target: HIV-1 Env of pseudovirus BJOX015000.11.5 (HIV-1)
# [4] = target: HIV-1 Env of pseudovirus 1394C9G1(Rev-) (HIV-1)
# [5] = target: HIV-1 Env of pseudovirus 3016.v5.c45 (HIV-1)
# [6] = target: HIV-1 Env of pseudovirus Q23.17 (HIV-1)
# [7] = target: HIV-1 Env of pseudovirus CNE17 (HIV-1)
# [8] = target: HIV-1 Env of pseudovirus PVO.4 (HIV-1)
# [9] = target: HIV-1 Env of pseudovirus 191084 B7-19 (HIV-1)
# [10] = target: HIV-1 Env of pseudovirus ZM247v1(Rev-) (HIV-1)
# [11] = target: HIV-1 Env of pseudovirus 6535.3 (HIV-1)
# [12] = target: HIV-1 Env of pseudovirus Q842.d12 (HIV-1)
# [13] = target: HIV-1 Env of pseudovirus Du422.1 (HIV-1)
# [14] = target: HIV-1 Env of pseudovirus Q769.d22 (HIV-1)
# [15] = target: HIV-1 Env of pseudovirus R2184.c04 (HIV-1)
# [16] = target: HIV-1 Env of pseudovirus X1193_c1 (HIV-1)
# [17] = target: HIV-1 Env of pseudovirus 928-28 (HIV-1)
# [18] = target: HIV-1 Env of pseudovirus T257-31 (HIV-1)
# [19] = target: HIV-1 Env of pseudovirus 9004SS_A3_4 (HIV-1)
# [20] = target: HIV-1 Env of pseudovirus CAP45.2.00.G3 (HIV-1)
# [21] = target: HIV-1 Env of pseudovirus TRJO4551.58 (HIV-1)
# [22] = target: HIV-1 Env of pseudovirus 6240_08_TA5_4622 (HIV-1)
# [23] = target: HIV-1 Env of pseudovirus 263-8 (HIV-1)
# [24] = target: HIV-1 Env of pseudovirus 1056_10_TA11_1826 (HIV-1)
# [25] = target: HIV-1 Env of pseudovirus T250-4 (HIV-1)
# [26] = target: HIV-1 Env of pseudovirus 89-F1_2_25 (HIV-1)
# [27] = target: HIV-1 Env of pseudovirus 3103.v3.c10 (HIV-1)
# [28] = target: HIV-1 Env of pseudovirus 3301.v1.c24 (HIV-1)
# [29] = target: HIV-1 Env of pseudovirus Du156.12 (HIV-1)
# [30] = target: HIV-1 Env of pseudovirus 0815.v3.c3 (HIV-1)
# [31] = target: HIV-1 Env of pseudovirus HIV-001428-2.42 (HIV-1)
# [32] = target: HIV-1 Env of pseudovirus Ce2060_G9 (HIV-1)
# [33] = target: HIV-1 Env of pseudovirus Q461.e2 (HIV-1)
# [34] = target: HIV-1 Env of pseudovirus BJOX009000.02.4 (HIV-1)
# [35] = target: HIV-1 Env of pseudovirus CNE53 (HIV-1)
# [36] = target: HIV-1 Env of pseudovirus T278-50 (HIV-1)
# [37] = target: HIV-1 Env of pseudovirus 249M B10 (HIV-1)
substance,measurement,setting,value
3BNC117 (antibody),neutralization IC50,[1],> 50 µg/mL
same,neutralization IC80,[1],> 50 µg/mL
same,neutralization IC50,[2],0.33 µg/mL
same,neutralization IC80,[2],2.53 µg/mL
same,"IC50, titer in TZM.bl cells",[3],0.05 µg/mL
same,"IC80, titer in TZM.bl cells",[3],0.32 µg/mL
same,neutralization IC50,[4],> 50 µg/mL
same,neutralization IC80,[4],> 50 µg/mL
same,"IC50, titer in TZM.bl cells",[5],1.38 µg/mL
same,"IC80, titer in TZM.bl cells",[5],> 30 µg/mL
same,neutralization IC50,[6],0.005 µg/mL
same,neutralization IC80,[6],0.02 µg/mL
same,neutralization IC50,[7],5.76 µg/mL
same,neutralization IC80,[7],43 µg/mL
same,neutralization IC50,[8],< 0.09 µg/mL
same,neutralization IC80,[8],0.19 µg/mL
same,neutralization IC50,[9],0.07 µg/mL
same,neutralization IC80,[9],0.23 µg/mL
same,neutralization IC50,[10],> 50 µg/mL
same,neutralization IC80,[10],> 50 µg/mL
same,neutralization IC50,[11],0.55 µg/mL
same,neutralization IC80,[11],2.44 µg/mL
same,neutralization IC50,[12],< 0.01 µg/mL
same,neutralization IC80,[12],0.01 µg/mL
same,neutralization IC50,[13],> 50 µg/mL
same,neutralization IC80,[13],> 50 µg/mL
same,neutralization IC50,[14],0.01 µg/mL
same,neutralization IC80,[14],0.04 µg/mL
same,"IC50, titer in TZM.bl cells",[15],0.03 µg/mL
same,"IC80, titer in TZM.bl cells",[15],0.1 µg/mL
same,"IC50, titer in TZM.bl cells",[16],0.06 µg/mL
same,"IC80, titer in TZM.bl cells",[16],0.25 µg/mL
same,neutralization IC50,[17],0.15 µg/mL
same,neutralization IC80,[17],0.55 µg/mL
same,neutralization IC50,[18],0.06 µg/mL
same,neutralization IC80,[18],0.37 µg/mL
same,neutralization IC50,[19],0.07 µg/mL
same,neutralization IC80,[19],0.18 µg/mL
same,neutralization IC50,[20],3.88 µg/mL
same,neutralization IC80,[20],> 50 µg/mL
same,neutralization IC50,[21],0.05 µg/mL
same,neutralization IC80,[21],0.19 µg/mL
same,neutralization IC50,[22],0.33 µg/mL
same,neutralization IC80,[22],1.17 µg/mL
same,neutralization IC50,[23],0.005 µg/mL
same,neutralization IC80,[23],0.04 µg/mL
same,neutralization IC50,[24],0.3 µg/mL
same,neutralization IC80,[24],1.82 µg/mL
same,"IC50, titer in TZM.bl cells",[25],> 15 µg/mL
same,"IC80, titer in TZM.bl cells",[25],> 15 µg/mL
same,"IC50, titer in TZM.bl cells",[26],> 50 µg/mL
same,"IC80, titer in TZM.bl cells",[26],> 50 µg/mL
same,"IC50, titer in TZM.bl cells",[27],0.22 µg/mL
same,"IC80, titer in TZM.bl cells",[27],0.85 µg/mL
same,"IC50, titer in TZM.bl cells",[28],0.01 µg/mL
same,"IC80, titer in TZM.bl cells",[28],0.05 µg/mL
same,neutralization IC50,[29],0.02 µg/mL
same,neutralization IC80,[29],0.08 µg/mL
same,"IC50, titer in TZM.bl cells",[30],0.01 µg/mL
same,"IC80, titer in TZM.bl cells",[30],0.02 µg/mL
same,neutralization IC50,[31],0.003 µg/mL
same,neutralization IC80,[31],0.02 µg/mL
same,neutralization IC50,[32],0.24 µg/mL
same,neutralization IC80,[32],0.81 µg/mL
same,neutralization IC50,[33],0.03 µg/mL
same,neutralization IC80,[33],0.09 µg/mL
same,"IC50, titer in TZM.bl cells",[34],0.4 µg/mL
same,"IC80, titer in TZM.bl cells",[34],1.79 µg/mL
same,neutralization IC50,[35],0.08 µg/mL
same,neutralization IC80,[35],0.99 µg/mL
same,"IC50, titer in TZM.bl cells",[36],> 15 µg/mL
same,"IC80, titer in TZM.bl cells",[36],> 15 µg/mL
same,neutralization IC50,[37],0.1 µg/mL
same,neutralization IC80,[37],0.4 µg/mL
PGT145 (antibody),IC50,[1],< 0.001 µg/mL
same,IC80,[1],< 0.001 µg/mL
same,IC50,[2],9.27 µg/mL
same,IC80,[2],> 50 µg/mL
same,"IC50, titer in TZM.bl cells",[3],> 50 µg/mL
same,"IC80, titer in TZM.bl cells",[3],> 50 µg/mL
same,IC50,[4],0.001 µg/mL
same,IC80,[4],0.005 µg/mL
same,"IC50, titer in TZM.bl cells",[5],> 50 µg/mL
same,"IC80, titer in TZM.bl cells",[5],> 50 µg/mL
same,IC50,[6],1.32 µg/mL
same,IC80,[6],> 50 µg/mL
same,IC50,[7],0.091 µg/mL
same,IC80,[7],1.16 µg/mL
same,IC50,[8],0.192 µg/mL
same,IC80,[8],0.87 µg/mL
same,IC50,[9],0.028 µg/mL
same,IC80,[9],0.345 µg/mL
same,IC50,[10],7.19 µg/mL
same,IC80,[10],> 50 µg/mL
same,IC50,[11],> 50 µg/mL
same,IC80,[11],> 50 µg/mL
same,IC50,[12],0.032 µg/mL
same,IC80,[12],0.552 µg/mL
same,IC50,[13],22.6 µg/mL
same,IC80,[13],> 50 µg/mL
same,IC50,[14],0.26 µg/mL
same,IC80,[14],25.5 µg/mL
same,"IC50, titer in TZM.bl cells",[15],0.073 µg/mL
same,"IC80, titer in TZM.bl cells",[15],0.376 µg/mL
same,"IC50, titer in TZM.bl cells",[16],0.013 µg/mL
same,"IC80, titer in TZM.bl cells",[16],0.091 µg/mL
same,IC50,[17],> 50 µg/mL
same,IC80,[17],> 50 µg/mL
same,IC50,[18],5.18 µg/mL
same,IC80,[18],> 50 µg/mL
same,IC50,[19],0.018 µg/mL
same,IC80,[19],0.419 µg/mL
same,IC50,[20],0.001 µg/mL
same,IC80,[20],0.007 µg/mL
same,IC50,[21],> 50 µg/mL
same,IC80,[21],> 50 µg/mL
same,IC50,[22],> 50 µg/mL
same,IC80,[22],> 50 µg/mL
same,IC50,[23],32.1 µg/mL
same,IC80,[23],> 50 µg/mL
same,IC50,[24],0.23 µg/mL
same,IC80,[24],0.938 µg/mL
same,IC50,[25],0.002 µg/mL
same,IC80,[25],0.039 µg/mL
same,"IC50, titer in TZM.bl cells",[26],0.8 µg/mL
same,"IC80, titer in TZM.bl cells",[26],20 µg/mL
same,"IC50, titer in TZM.bl cells",[27],0.043 µg/mL
same,"IC80, titer in TZM.bl cells",[27],0.164 µg/mL
same,"IC50, titer in TZM.bl cells",[28],0.219 µg/mL
same,"IC80, titer in TZM.bl cells",[28],4.22 µg/mL
same,IC50,[29],0.001 µg/mL
same,IC80,[29],0.018 µg/mL
same,"IC50, titer in TZM.bl cells",[30],> 50 µg/mL
same,"IC80, titer in TZM.bl cells",[30],> 50 µg/mL
same,IC50,[31],0.001 µg/mL
same,IC80,[31],0.083 µg/mL
same,IC50,[32],0.016 µg/mL
same,IC80,[32],0.205 µg/mL
same,IC50,[33],7.8 µg/mL
same,IC80,[33],> 50 µg/mL
same,"IC50, titer in TZM.bl cells",[34],0.117 µg/mL
same,"IC80, titer in TZM.bl cells",[34],0.745 µg/mL
same,IC50,[35],0.006 µg/mL
same,IC80,[35],0.084 µg/mL
same,"IC50, titer in TZM.bl cells",[36],10.3 µg/mL
same,"IC80, titer in TZM.bl cells",[36],> 50 µg/mL
same,IC50,[37],0.947 µg/mL
same,IC80,[37],41.3 µg/mL
